Data on one sequence can be found in publication PMC12510224.

The data set concerns the target MDM2(S395D) S395D (UniProt Q00987). Briefly: RNA co-IP (anti-MDM2 4B2) with RT-qPCR. The following applies: RNA co-IP: 50 mM Tris pH 7.5, 150 mM NaCl, 0.01 mM ZnSO4, 2 mM MgCl2, 0.02 mg/mL yeast tRNA, 0.2 mg/mL BSA, room temperature, pull-down overnight at 4 C.

MDM2(S395D) S395D, sequence (Q00987 whole entry S395D): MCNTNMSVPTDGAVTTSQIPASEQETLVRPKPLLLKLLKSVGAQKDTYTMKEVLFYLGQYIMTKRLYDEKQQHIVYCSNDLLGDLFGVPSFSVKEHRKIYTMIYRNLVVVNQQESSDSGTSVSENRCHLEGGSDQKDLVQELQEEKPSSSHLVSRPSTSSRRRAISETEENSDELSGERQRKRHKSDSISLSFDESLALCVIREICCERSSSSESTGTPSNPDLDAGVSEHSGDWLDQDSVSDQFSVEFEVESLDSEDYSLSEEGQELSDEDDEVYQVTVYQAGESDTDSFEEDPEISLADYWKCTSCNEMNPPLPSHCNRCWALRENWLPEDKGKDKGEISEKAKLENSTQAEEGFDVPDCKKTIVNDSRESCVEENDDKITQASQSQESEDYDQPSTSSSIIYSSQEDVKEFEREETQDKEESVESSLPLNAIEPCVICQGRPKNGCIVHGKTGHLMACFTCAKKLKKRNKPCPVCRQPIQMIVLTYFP

As for “AUGGAGGAGCCGCAGUCAGAUCCUAGCGUCGAGCCCCCUCUGAGUCAGGAAACAUUUUCAGACCUAUGGAAACUACUUCCUGAAAACAACGUUCUGUCCCCCUUGCCGUCCCAAGCAAUGGAUGAUUUGAUGCUGUCCCCGGACGAUAUUGAACAAUGGUUCACUGAAGACCCAGGUCCAGAUGAAGCUCCCAGAAUGCCAGAGGCUGCUCCCCCCGUGGCCCCUGCACCAGCAGCUCCU [p53 mRNA +1 to +240 WT]”, the binding signal (fold increase over no BOX-I oligo) was determined as 60.
